Experimental data published in patent US20260242478A1 (published 2026).
Where no end group is shown, it is not given here.

B1: Phage-1847 (peptide)
peptide: SMHWCTPKWMCEGL
modifications: cysteine pairing not given here; also: displayed on phage as pIII fusion, pIII and linker sequences not given here
notes: Clone of the Peptide-180 library
B2: Phage-1846 (peptide)
peptide: PSMRCIPEWMCAML
modifications: cysteine pairing not given here; also: displayed on phage as pIII fusion, pIII and linker sequences not given here
notes: as for B1
B3: Phage-1850 (peptide)
peptide: PTKLCIPEWMCYVR
modifications: cysteine pairing not given here; also: displayed on phage as pIII fusion, pIII and linker sequences not given here
notes: as for B1
B4: Phage-1849 (peptide)
peptide: FSHWCIPEWMCSTS
modifications: cysteine pairing not given here; also: displayed on phage as pIII fusion, pIII and linker sequences not given here
notes: as for B1
B5: Phage-1848 (peptide)
peptide: AIPWCIPAWMCQVF
modifications: cysteine pairing not given here; also: displayed on phage as pIII fusion, pIII and linker sequences not given here
notes: as for B1
B6: Phage-1832 (peptide)
peptide: MGKWCIPEWMCNVS
notes: tested as crude clonal phage supernatant
B7: Phage-1834 (peptide)
peptide: VERMCMPAWMCDMF
notes: as for B6
B8: Phage-1835 (peptide)
peptide: YEKWCVPDWMCSMI
notes: as for B6
B9: Phage-1841 (peptide)
peptide: TDKWCIPPWMCMLQ
notes: as for B6
B10: Phage-1845 (peptide)
peptide: FTNWCTPEWMCSGF
notes: as for B6
B11: Phage-1838 (peptide)
peptide: VMKWCIPVWMCGGM
notes: as for B6
B12: Phage-1836 (peptide)
peptide: WLPMCRPAWMCAGL
modifications: cysteine pairing not given here; also: displayed on phage as pIII fusion, pIII sequence and linker not given here
notes: as for B6
B13: Phage-1839 (peptide)
peptide: YDILCRPSWMCSWV
notes: as for B6
B14: Phage-1833 (peptide)
peptide: DIPWCIPPWMCAGS
modifications: cysteine pairing not given here; also: displayed on phage as pIII fusion, pIII sequence and linker not given here
notes: as for B6
B15: Phage-1842 (peptide)
peptide: VERWCVPEWMCHWI
notes: as for B6
B16: Phage-1843 (peptide)
peptide: LDRWCIPEWMCEMF
notes: as for B6
B17: Phage-1837 (peptide)
peptide: GLNWCTPTWMCQGF
notes: as for B6
B18: Phage-1831 (peptide)
peptide: IIPWCKPAWMCSGM
notes: as for B6
B19: Phage-1840 (peptide)
peptide: MVKWCIPSWMCDSV
notes: as for B6
B20: Phage-1844 (peptide)
peptide: TDKLCIPEWMCINW
notes: as for B6

target: T1, Anti-PSMA Fab (SEQ ID NOs: 19, 20); assay: phage binding ELISA; biotinylated anti-PSMA Fab captured on neutravidin, bound phage detected with anti-M13 HRP
T1 construct: Biotinylated and captured on neutravidin coated plates in the phage ELISA; also called 006 PSMA Fab
Protocol: (§1) Clonal phage were harvested as crude supernatants and screened via standard ELISAs. […] Prior to the addition of clonal phage. wells were incubated with blocking buffer and PSMA antigen or blocking buffer alone. Without washing or aspirating, clonal phage supernatants were then added to the wells and incubated for a short time. Wells were then washed followed by detection of bound phage using a horse radish conjugated anti-M13 antibody.

Binder | Anti-PSMA Fab (SEQ ID NOs: 19, 20) signal
VVKACIPTWMCQFV [Phage-1779 (clonal phage displaying the peptide of SEQ ID NO: 2075)] | 2.02
DVKLCKPEWMCYGL [Phage-1786 (clonal phage displaying the peptide of SEQ ID NO: 2082)] | 1.75
LTKLCIPDWMCSEF [Phage-1776 (clonal phage displaying the peptide of SEQ ID NO: 2072)] | 2.07
DLRLCKPAWMCDFI [Phage-1781 (clonal phage displaying the peptide of SEQ ID NO: 2077)] | 1.95
GEKWCIPDWMCSGF [Phage-1783 (clonal phage displaying the peptide of SEQ ID NO: 2079)] | 1.91
ISKWCIPEWMCTSP [Phage-1787 (clonal phage displaying the peptide of SEQ ID NO: 2083)] | 1.73
IDIRCTPIWMCVGF [Phage-1789 (clonal phage displaying the peptide of SEQ ID NO: 2085)] | 1.57
LDNWCKPSWMCTGF [Phage-1777 (clonal phage displaying the peptide of SEQ ID NO: 2073)] | 2.05
EFKWCIPSWMCHET [Phage-1778 (clonal phage displaying the peptide of SEQ ID NO: 2074)] | 2.02
LEKLCKPAWMCVNF [Phage-1788 (clonal phage displaying the peptide of SEQ ID NO: 2084)] | 1.66
VEKLCTPIWMCLGF [Phage-1785 (clonal phage displaying the peptide of SEQ ID NO: 2081)] | 1.84
LDKWCVPKWMCSGL [Phage-1782 (clonal phage displaying the peptide of SEQ ID NO: 2078)] | 1.92
IPKSCIPSWMCTGF [Phage-1775 (clonal phage displaying the peptide of SEQ ID NO: 2071)] | 2.08
LEKTCIPTWMCVGF [Phage-1784 (clonal phage displaying the peptide of SEQ ID NO: 2080)] | 1.88
VTKWCIPPWMCEVT (also called Peptide-230) [Phage-1780 (clonal phage displaying the peptide of SEQ ID NO: 2076)] | 2

target: T2, Anti-PSMA Fab (SEQ ID NOs: 19, 20); assay: phage ELISA; PSMA Fab on plate pre-incubated with PSMA antigen as competitor, anti-M13 HRP detection;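 also: crude clonal phage supernatants added to Fab-coated wells still holding PSMA antigen in blocking buffer, with bound phage as read-out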
T2 construct: In the phage ELISA the Fab was biotinylated and captured on neutravidin coated plates; also called 006 PSMA Fab
Protocol: as §1

Binder | Phage binding ELISA, Anti-PSMA Fab signal in the presence of PSMA
B1 | 0.147
B2 | 0.0824
B3 | 0.0692
B4 | 0.158
B5 | 0.234

target: T3, Anti-PSMA Fab (SEQ ID NOs: 19, 20); assay: phage binding ELISA; clonal phage on biotinylated PSMA Fab captured on neutravidin plates, anti-M13 HRP detection
T3 construct: Biotinylated Fab captured on neutravidin coated plates in the phage ELISA; also called 006 PSMA Fab
Protocol: as §1

Binder | Anti-PSMA Fab (SEQ ID NOs: 19, 20) signal
DLRLCKPAWMCYFI [Phage-1773] | 2.11
EGIRCTPIWMCEGF [Phage-1774] | 2.09
FEKWCTPPWMCSLF [Phage-1772] | 2.11
IDKLCIPFWMCENL [Phage-1771] | 2.16

target: T3, Anti-PSMA Fab (SEQ ID NOs: 19, 20); assay: phage binding ELISA on PSMA Fab coated plates; competitor: PSMA antigen
Protocol: as §1

Binder | Anti-PSMA Fab signal in the presence of PSMA
DLRLCKPAWMCYFI [Phage-1773] | 0.0751
EGIRCTPIWMCEGF [Phage-1774] | 0.0778
FEKWCTPPWMCSLF [Phage-1772] | 0.203
IDKLCIPFWMCENL [Phage-1771] | 0.0699

target: T1, Anti-PSMA Fab (SEQ ID NOs: 19, 20); assay: phage binding ELISA on captured anti-PSMA Fab; PSMA antigen as competitor
Protocol: as §1

Binder | Anti-PSMA Fab signal in the presence of PSMA
VVKACIPTWMCQFV [Phage-1779 (clonal phage displaying the peptide of SEQ ID NO: 2075)] | 0.0901
DVKLCKPEWMCYGL [Phage-1786 (clonal phage displaying the peptide of SEQ ID NO: 2082)] | 0.0637
LTKLCIPDWMCSEF [Phage-1776 (clonal phage displaying the peptide of SEQ ID NO: 2072)] | 0.0876
DLRLCKPAWMCDFI [Phage-1781 (clonal phage displaying the peptide of SEQ ID NO: 2077)] | 0.0601
GEKWCIPDWMCSGF [Phage-1783 (clonal phage displaying the peptide of SEQ ID NO: 2079)] | 0.148
ISKWCIPEWMCTSP [Phage-1787 (clonal phage displaying the peptide of SEQ ID NO: 2083)] | 0.107
IDIRCTPIWMCVGF [Phage-1789 (clonal phage displaying the peptide of SEQ ID NO: 2085)] | 0.0801
LDNWCKPSWMCTGF [Phage-1777 (clonal phage displaying the peptide of SEQ ID NO: 2073)] | 0.0633
EFKWCIPSWMCHET [Phage-1778 (clonal phage displaying the peptide of SEQ ID NO: 2074)] | 0.0857
LEKLCKPAWMCVNF [Phage-1788 (clonal phage displaying the peptide of SEQ ID NO: 2084)] | 0.107
VEKLCTPIWMCLGF [Phage-1785 (clonal phage displaying the peptide of SEQ ID NO: 2081)] | 0.0705
LDKWCVPKWMCSGL [Phage-1782 (clonal phage displaying the peptide of SEQ ID NO: 2078)] | 0.0742
IPKSCIPSWMCTGF [Phage-1775 (clonal phage displaying the peptide of SEQ ID NO: 2071)] | 0.101
LEKTCIPTWMCVGF [Phage-1784 (clonal phage displaying the peptide of SEQ ID NO: 2080)] | 0.0732
VTKWCIPPWMCEVT (also called Peptide-230) [Phage-1780 (clonal phage displaying the peptide of SEQ ID NO: 2076)] | 0.0864

target: T4, Anti-PSMA Fab (SEQ ID NOs: 19, 20); assay: phage binding ELISA; biotinylated PSMA Fab on neutravidin plate, clonal phage supernatant, anti-M13 HRP detection;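 also: wells were preincubated with blocking buffer either containing PSMA antigen or without it before crude phage supernatant was added, briefly incubated, then washed prior to detection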
T4 construct: Biotinylated PSMA Fab captured on neutravidin coated plates in the phage ELISA; also called 006 PSMA Fab
Protocol: as §1

Binder | Anti-PSMA Fab (SEQ ID NOs: 19, 20) signal
B6 | 2.29
B7 | 2.28
B8 | 2.28
B9 | 2.23
B10 | 2.21
B11 | 2.26
B12 | 2.27
B13 | 2.24
B14 | 2.28
B15 | 2.23
B16 | 2.22
B17 | 2.26
B18 | 2.29
B19 | 2.23
B20 | 2.22

target: T4, Anti-PSMA Fab (SEQ ID NOs: 19, 20); assay: phage binding ELISA; PSMA Fab on plate pre-incubated with PSMA antigen as competitor, anti-M13 HRP detection;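 also: crude clonal phage supernatants added without washing to wells preincubated with PSMA in blocking buffer, compared with wells receiving blocking buffer only, then bound phage detected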
Protocol: as §1

Binder | Anti-PSMA Fab signal in the presence of PSMA
B6 | 0.0652
B7 | 0.0862
B8 | 0.0678
B9 | 0.0865
B10 | 0.0826
B11 | 0.291
B12 | 0.0653
B13 | 0.145
B14 | 0.112
B15 | 0.0977
B16 | 0.0928
B17 | 0.0833
B18 | 0.275
B19 | 0.109
B20 | 0.0602

target: T2, Anti-PSMA Fab (SEQ ID NOs: 19, 20); assay: phage ELISA; biotinylated PSMA Fab on neutravidin plate, clonal phage supernatant, anti-M13 HRP detection;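 also: wells preincubated with PSMA antigen in blocking buffer or with blocking buffer only before clonal phage were added for a short incubation, then bound phage detected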
Protocol: as §1

Binder | Phage binding ELISA, Anti-PSMA Fab signal
B1 | 2.2
B2 | 2.2
B3 | 2.17
B4 | 2.18
B5 | 2.18
